Series [1] deals with T1, HIF-1 (HIF-1alpha/HIF-1beta (ARNT) heterodimer) (Homo sapiens?, UniProt Q16665;P27540 Q16665:1-826,P27540:2-789). The series can be described thus: competition; TransAM. To be noted: protein: extract; tags: none (endogenous, nuclear extract). The procedure:
To assess the relative affinities of oligonucleotides for a HIF-1α containing complex, the HIF-1 TransAM assay (Active Motif, Catalog # 47096) was utilized. The assay was performed according to manufacturer's instructions. Briefly, a double-stranded oligonucletide containing the hypoxia response element (HRE) was immobilized on a 96-well plate. A nuclear extract containing HIF-1α complexes was incubated and allowed to bind to the immobilized oligonucleotide. The unbound material was washed away and the bound HIF-1α detected using an antibody that specificially recognizes HIF-1α. The anti-HIF-1α antibody was detected by a secondary antibody labeled with horseradish peroxidase (HRP), and the amount of HRP in each well was measured using a calorimetric substrate reaction and read using a microplate spectrophotometer.
The ability of candidate decoy molecules to compete for binding of HIF-1α to the HRE element-immobilized on the plate were measured and compared to reveal relative binding affinities. Candidate decoys were added in increasing molar ratios (relative to the amount of oligo immobilized on the plate) to compete for binding to the HIF-1α containing complexes. The amounts of decoys added to the assay included 0.625, 1.25, 2.5, 5, 10 and 20 fold molar excess. A well containing a competing decoy able to bind HIF-1α with high affinity would give a lower absorbance reading as compared to a decoy with low affinity for HIF-1α. All potential decoys were then compared and ranked in order to assess their relative binding affinities.
The screen was conducted using different decoy concentrations. For each UV absorbance reading, normalization was done by calculating the ratio of absorbance readings of sample vs. wild type control. The bigger ratio represents less competition of binding with HIF-1α when compared with wild-type control. The smaller (smaller than 1.0 or close to 1.0) ratios represent better binding or better competition.

In series [2] the target is T1, HIF-1 (HIF-1alpha/HIF-1beta (ARNT) …). As to the kind of experiment: competition; 2.5-fold molar excess. Conditions: protein: extract; tags: none (endogenous, nuclear extract).

T1 sequence (Q16665 whole entry, chain 1 of 2): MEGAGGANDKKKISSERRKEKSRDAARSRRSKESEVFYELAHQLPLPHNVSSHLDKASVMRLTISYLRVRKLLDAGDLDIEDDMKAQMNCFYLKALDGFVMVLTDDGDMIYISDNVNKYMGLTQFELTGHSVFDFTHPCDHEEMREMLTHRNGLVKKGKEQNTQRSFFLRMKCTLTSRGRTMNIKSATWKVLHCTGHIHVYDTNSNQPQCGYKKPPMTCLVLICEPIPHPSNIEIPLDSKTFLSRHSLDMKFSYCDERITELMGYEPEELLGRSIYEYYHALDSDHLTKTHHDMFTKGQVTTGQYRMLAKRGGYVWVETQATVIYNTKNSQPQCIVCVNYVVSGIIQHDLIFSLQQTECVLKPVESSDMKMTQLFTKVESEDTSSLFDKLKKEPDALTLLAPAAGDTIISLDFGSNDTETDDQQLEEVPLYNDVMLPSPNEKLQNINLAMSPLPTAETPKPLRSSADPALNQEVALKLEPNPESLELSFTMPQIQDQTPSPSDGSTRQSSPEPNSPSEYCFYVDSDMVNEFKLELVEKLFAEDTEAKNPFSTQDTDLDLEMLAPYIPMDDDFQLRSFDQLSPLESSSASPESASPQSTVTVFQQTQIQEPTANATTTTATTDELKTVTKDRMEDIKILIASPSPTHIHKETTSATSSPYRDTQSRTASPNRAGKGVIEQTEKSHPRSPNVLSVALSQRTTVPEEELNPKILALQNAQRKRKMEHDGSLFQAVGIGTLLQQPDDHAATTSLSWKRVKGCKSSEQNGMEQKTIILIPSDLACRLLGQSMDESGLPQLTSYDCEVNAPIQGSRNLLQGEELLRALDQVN
T1 sequence (P27540 2-789, chain 2 of 2): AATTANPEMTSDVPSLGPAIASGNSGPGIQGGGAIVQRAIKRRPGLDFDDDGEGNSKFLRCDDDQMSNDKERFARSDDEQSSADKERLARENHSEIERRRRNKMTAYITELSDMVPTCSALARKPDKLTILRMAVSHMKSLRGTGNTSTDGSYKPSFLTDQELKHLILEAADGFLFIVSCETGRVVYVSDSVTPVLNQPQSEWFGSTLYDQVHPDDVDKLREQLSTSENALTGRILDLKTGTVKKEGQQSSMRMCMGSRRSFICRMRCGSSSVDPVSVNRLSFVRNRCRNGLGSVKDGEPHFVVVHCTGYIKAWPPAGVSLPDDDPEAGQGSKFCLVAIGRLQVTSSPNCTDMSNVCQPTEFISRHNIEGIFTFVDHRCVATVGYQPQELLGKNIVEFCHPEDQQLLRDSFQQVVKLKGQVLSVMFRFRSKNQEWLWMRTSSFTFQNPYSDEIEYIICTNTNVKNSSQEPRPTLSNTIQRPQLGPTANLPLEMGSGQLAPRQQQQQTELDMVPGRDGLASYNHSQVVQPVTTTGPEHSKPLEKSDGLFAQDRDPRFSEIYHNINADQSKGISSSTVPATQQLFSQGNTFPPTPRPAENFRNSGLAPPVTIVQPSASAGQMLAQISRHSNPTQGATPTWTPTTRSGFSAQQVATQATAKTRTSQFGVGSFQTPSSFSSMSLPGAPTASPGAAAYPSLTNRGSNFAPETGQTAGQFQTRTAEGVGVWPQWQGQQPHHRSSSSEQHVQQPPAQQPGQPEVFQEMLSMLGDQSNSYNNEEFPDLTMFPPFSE

B1: decoy 937 (dsDNA)
DNA 1: CCAGCGTAGGTGCCTCAGG
DNA 2: CCTGAGGCACCTACGCTGG
In the case of B1, the binding signal in series [1] amounted to 2.49 ratio.

B2: decoy 825/826 (dsDNA)
DNA 1: AGGAGACGTGCGAGAA
DNA 2: TTCTCGCACGTCTCCT
As to B2, in series [1], the binding signal stood at 5.1 ratio.

B3: 895/896 PS/PO (dsDNA)
DNA 1: CACCAGCGTACGTGCCTCAGG
DNA 2: CCTGAGGCACGTACGCTGGTG
modifications: 895: full PS; 896: unmodified
As to B3, in series [2], the binding signal amounted to 0.52 ratio.

B4: decoy 809/810 (dsDNA)
DNA 1: AGGGCCGGACGTGGGGCCCC
DNA 2: GGGGCCCCACGTCCGGCCCT
For B4, the binding signal in series [1] came out at 4.57 ratio.

B5: 895/896 PS/PS (dsDNA)
DNA 1: CACCAGCGTACGTGCCTCAGG
DNA 2: CCTGAGGCACGTACGCTGGTG
modifications: full PS both strands
In series [2], B5 returned a binding signal of 0.98 ratio.

B6: decoy 973 (dsDNA)
DNA 1: CCAGAGTACGTGCCTCAGG
DNA 2: CCTGAGGCACGTACTCTGG
Molecule B6 yielded a binding signal in series [1] of 1.34 ratio.

B7: decoy 933 (dsDNA)
DNA 1: CCAGCGTATGTGCCTCAGG
DNA 2: CCTGAGGCACATACGCTGG
B7: in series [1], the binding signal came out at 3.47 ratio.

B8: 895/896 H6/H6 (dsDNA)
DNA 1: CACCAGCGTACGTGCCTCAGG
DNA 2: CCTGAGGCACGTACGCTGGTG
modifications: PS at 6 linkages from 3' end, both strands
Regarding B8, the binding signal in series [2] stood at 1.01 ratio.

B9: decoy 851/852 (dsDNA)
DNA 1: CGGAGTACGTGACGGAGC
DNA 2: GCTCCGTCACGTACTCCG
B9 yielded a binding signal in series [1] of 1.41 ratio.

B10: decoy 853/854 (dsDNA)
DNA 1: TTGCTTACGTGCGCCCGG
DNA 2: CCGGGCGCACGTAAGCAA
For B10, the binding signal in series [1] came out at 1.73 ratio.

B11: decoy 845/846 (dsDNA)
DNA 1: GAGCGTACGTGCCTCAGG
DNA 2: CCTGAGGCACGTACGCTC
B11 registered a binding signal in series [1] of 1.59 ratio.

B12: decoy 935 (dsDNA)
DNA 1: CCAGCGTAAGTGCCTCAGG
DNA 2: CCTGAGGCACTTACGCTGG
Take B12: in series [1], the binding signal is 2.43 ratio.

B13: decoy 827/828 (dsDNA)
DNA 1: AGGTTACGTGCGGACA
DNA 2: TGTCCGCACGTAACCT
In the case of B13, in series [1], the binding signal was determined as 4.48 ratio.

B14: decoy 875/876 (dsDNA)
DNA 1: TGCAGACGTGCAGGTC
DNA 2: GACCTGCACGTCTGCA
As to B14, the binding signal in series [1] turned out to be 2.63 ratio.

B15: decoy 997 (dsDNA)
DNA 1: CCGGGGCACGTGCCCCAGG
DNA 2: CCTGGGGCACGTGCCCCGG
As for B15, the binding signal in series [1] was determined as 1.28 ratio.

B16: decoy 817/818 (dsDNA)
DNA 1: CTGCCGACGTGCGCTCCGGAG
DNA 2: CTCCGGAGCGCACGTCGGCAG
Molecule B16 yielded a binding signal in series [1] of 4.81 ratio.

B17: decoy 903 (dsDNA)
DNA 1: CACCTGCATACGTGGGCTCCA
DNA 2: TGGAGCCCACGTATGCAGGTG
Molecule B17 registered a binding signal in series [1] of 1.94 ratio.

B18: 895/896 H4/H4 (dsDNA)
DNA 1: CACCAGCGTACGTGCCTCAGG
DNA 2: CCTGAGGCACGTACGCTGGTG
modifications: PS at 4 linkages from 3' end, both strands
In the case of B18, in series [2], the binding signal is 1.42 ratio.

B19: decoy 891/892 (dsDNA)
DNA 1: GGCTGCTGCATACGTGCAGGTC
DNA 2: GACCTGCACGTATGCAGCAGCC
B19 came in with a binding signal in series [1] of 1.21 ratio.

B20: 895/896 H5/H5 (dsDNA)
DNA 1: CACCAGCGTACGTGCCTCAGG
DNA 2: CCTGAGGCACGTACGCTGGTG
modifications: PS at 5 linkages from 3' end, both strands
The molecule B20 returned a binding signal in series [2] of 1.34 ratio.

B21: decoy 881/882 (dsDNA)
DNA 1: GGCTGCAGGAGACGTGGAGAA
DNA 2: TTCTCCACGTCTCCTGCAGCC
In turn, B21 had a binding signal in series [1] of 3.62 ratio.

B22: decoy 863/864 (dsDNA)
DNA 1: AGCAGACGTGCAGGAT
DNA 2: ATCCTGCACGTCTGCT
As for B22, in series [1], the binding signal worked out at 2.15 ratio.

B23: 895/896 H3/H3 (dsDNA)
DNA 1: CACCAGCGTACGTGCCTCAGG
DNA 2: CCTGAGGCACGTACGCTGGTG
modifications: PS at 3 linkages from 3' end, both strands
B23: the binding signal in series [2] was 1.33 ratio.

B24: decoy 861/862 (dsDNA)
DNA 1: CTAATACGTGCCGCTG
DNA 2: CAGCGGCACGTATTAG
Take B24: the binding signal in series [1] was 2.18 ratio.

B25: 895/896 H2/H2 (dsDNA)
DNA 1: CACCAGCGTACGTGCCTCAGG
DNA 2: CCTGAGGCACGTACGCTGGTG
modifications: PS at 2 linkages from 3' end, both strands
For the molecule B25, the binding signal in series [2] came to 0.86 ratio.

B26: decoy 983 (dsDNA)
DNA 1: CCAGCGTACGTGTCTCAGG
DNA 2: CCTGAGACACGTACGCTGG
Molecule B26 gave a binding signal in series [1] of 1.3 ratio.

B27: decoy 887/888 (dsDNA)
DNA 1: GGCTGCACCGTACGTGCTGATC
DNA 2: GATCAGCACGTACGGTGCAGCC
As for B27, the binding signal in series [1] worked out at 1.89 ratio.

B28: decoy 883/884 (dsDNA)
DNA 1: AGAAGACGTGCAGGAT
DNA 2: ATCCTGCACGTCTTCT
B28 displayed a binding signal in series [1] of 4.37 ratio.

B29: decoy 885/886 (dsDNA)
DNA 1: TACAGACGTGCAGGTC
DNA 2: GACCTGCACGTCTGTA
In turn, B29 returned a binding signal in series [1] of 4.46 ratio.

B30: 895/896 H5/PO (dsDNA)
DNA 1: CACCAGCGTACGTGCCTCAGG
DNA 2: CCTGAGGCACGTACGCTGGTG
modifications: 895: PS at 5 linkages from 3' end; 896: unmodified
With B30, the binding signal in series [2] was determined as 1.27 ratio.

B31: decoy 843/844 (dsDNA)
DNA 1: GTGCATACGTGGGCTCCA
DNA 2: TGGAGCCCACGTATGCAC
B31 yielded a binding signal in series [1] of 1.7 ratio.

B32: decoy 991 (dsDNA)
DNA 1: CCAGCGTACGTGCATCAGG
DNA 2: CCTGATGCACGTACGCTGG
Molecule B32 registered a binding signal in series [1] of 1.02 ratio.

B33: decoy 985 (dsDNA)
DNA 1: CCAGCGTACGTGACTCAGG
DNA 2: CCTGAGTCACGTACGCTGG
In series [1], B33 yielded a binding signal of 0.91 ratio.

B34: decoy 999 (dsDNA)
DNA 1: CCATGGCACGTGCCTCAGG
DNA 2: CCTGAGGCACGTGCCATGG
B34 registered a binding signal in series [1] of 1.3 ratio.

B35: decoy 969 (dsDNA)
DNA 1: CCAGGGTACGTGCCTCAGG
DNA 2: CCTGAGGCACGTACCCTGG
Turning to B35, the binding signal in series [1] stood at 1.67 ratio.

B36: decoy 823/824 (dsDNA)
DNA 1: TGCATACGTGGGCTCCAACAG
DNA 2: CTGTTGGAGCCCACGTATGCA
As for B36, the binding signal in series [1] turned out to be 4.4 ratio.

B37: decoy 971 (dsDNA)
DNA 1: CCAGTGTACGTGCCTCAGG
DNA 2: CCTGAGGCACGTACACTGG
On to B37, for which the binding signal in series [1] is 1.05 ratio.

B38: 895/896 H3/PS (dsDNA)
DNA 1: CACCAGCGTACGTGCCTCAGG
DNA 2: CCTGAGGCACGTACGCTGGTG
modifications: 895: PS at 3 linkages from 3' end; 896: full PS
With B38, the binding signal in series [2] is 1.38 ratio.

B39: decoy 879/880 (dsDNA)
DNA 1: GGCTGCTGCAGACGTGCAGGTC
DNA 2: GACCTGCACGTCTGCAGCAGCC
The molecule B39 came in with a binding signal in series [1] of 1.4 ratio.

B40: decoy 869/870 (dsDNA)
DNA 1: AGCAGACGTGCAGGGT
DNA 2: ACCCTGCACGTCTGCT
With B40, in series [1], the binding signal came to 2.28 ratio.

B41: decoy 901 (dsDNA)
DNA 1: CACGTGCATACGTGGGCTCCA
DNA 2: TGGAGCCCACGTATGCACGTG
In series [1], B41 showed a binding signal of 1.6 ratio.

B42: decoy 811/812 (dsDNA)
DNA 1: ACGCTGAGTGCGTGCGGGAC
DNA 2: GTCCCGCACGCACTCAGCGT
In series [1], B42 had a binding signal of 3.9 ratio.

B43: decoy 889/890 (dsDNA)
DNA 1: TGCATACGTGCAGGTC
DNA 2: GACCTGCACGTATGCA
As for B43, the binding signal in series [1] is 4.14 ratio.

B44: decoy 849/850 (dsDNA)
DNA 1: GCCTACACGTGGGTTCCC
DNA 2: GGGAACCCACGTGTAGGC
As to B44, the binding signal in series [1] amounted to 2.66 ratio.

B45: decoy 981 (dsDNA)
DNA 1: CCAGCGTACGTGGCTCAGG
DNA 2: CCTGAGCCACGTACGCTGG
B45 displayed a binding signal in series [1] of 1.7 ratio.

B46: decoy 865/866 (dsDNA)
DNA 1: AGCAGACGTGCAGGCA
DNA 2: TGCCTGCACGTCTGCT
Take B46: the binding signal in series [1] amounted to 2.56 ratio.
